Measured values from the supplement of paper PMC9170038.

Assays:
[1] = tested on: MS2 coat protein; test: apparent KD of MS2 coat protein; higher = weaker reporter binding; settings: Eterna round: R101
Method: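 RNA-MaP: designed FMN/MS2 RNA switches (84 nt design region) are transcribed on-chip within common flanks and titrated with SNAP-549-labelled MS2 coat protein (about 1-3000 nM) in 100 mM Tris pH 7.5, 80 mM KCl, 4 mM MgCl2, without or with 200 uM FMN. Median apparent KD per design; activation ratio = KD,OFF / KD,ON.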

[2] = tested on: MS2 coat protein; test: apparent KD of MS2 coat protein, switch OFF state (with FMN for OFF switches, without FMN for ON switches); designed switch direction (-1 OFF switch, 1 ON switch): 1; higher = weaker reporter binding; settings: FMN input: 0 or 200 uM; Eterna round: R93 (includes R88 designs)
How it was run: (§1)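 For every design, apparent KD is the median of normalised binding-curve fits from its clusters. The RNA switches were transcribed on-chip from Illumina sequencing clusters and titrated with SNAP-549-labelled MS2 coat protein (twofold steps, 0.7 or 1.5 nM to 3 µM; 0.8–1.5 h to 10–20 min per step). Titrations used 100 mM Tris-HCl pH 7.5, 80 mM KCl, 4 mM MgCl2, without or with constant ligand.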

[3] = tested on: MS2 coat protein; test: apparent KD of MS2 coat protein, switch ON state; designed switch direction (-1 OFF switch, 1 ON switch): 1; higher = weaker reporter binding; settings: FMN input: 0 or 200 uM; Eterna round: R93 (includes R88 designs)
How it was run: as §1

Row | Sequence | apparent KD of MS2 coat protein ([1]; input ligand: FMN 200 uM) | apparent KD of MS2 coat protein ([1]; input ligand: none) | apparent KD of MS2 coat protein [2] | apparent KD of MS2 coat protein [3]
1 | AAAGAUUUUCAAGGAUAUCAGUGGCAAAGCCACUGAGAAGGUGAGGAUCACCCACCUACGUGACGCUGGAAACAGCGUCACGAA [#SharedSequence ExNG1 - 26] (puzzle (switch architecture): Exclusion NG 1) | 0.0645 µM | 0.021 µM | – | –
2 | AAAUAAAUCGAAGGAUAUCAGGGUGCACCUCAGUAAAACUGAGGUGCACCCUGAGAAGGUCGAGGAUCACCCGAUCUAAAUAAA [#SharedSequence SLExNG1: 2-2] (puzzle (switch architecture): Small Loop Exclusion NG 1) | 0.114 µM | 0.0193 µM | – | –
3 | AAAUAACUUGAAGGAUAUGACCCUCGAGGUGACUAAAAGUCACCUCGAGGGUCAGAAGGUCGAGGAUCACCCGACCUAGUGAAA [#SharedSequence SLExNG1: 7-1] (puzzle (switch architecture): Small Loop Exclusion NG 1) | 0.00761 µM | 0.00754 µM | – | –
4 | AAUAAAACUCAAGGAUAUGACUCCGAAACGGAGUCAGAAGGUGAGGAUCACCCACCUAGCUCAGCGUCGAAAGACGCUGAGCAA [#SharedSequence ExNG1 - 32] (puzzle (switch architecture): Exclusion NG 1) | 0.042 µM | 0.00901 µM | – | –
5 | AAUAAACAAUAAAAGAGUCCACGAAACUUUUGAGGAUCACCCAGAAGGGCUGAGGUAAUACCUCAGCAGGAUAUGGACGUGGAC [#SharedSequence IExNG# - 3] (puzzle (switch architecture): Inverted Exclusion NG 3) | 0.0868 µM | 0.0124 µM | – | –
6 | ACUUUAUUUGAGAAGGUGAAGUGGAAACAUGAGGAUCACCCAUGUAAUACGAAGCGUAUUUUUAUCAAGGAUAUCAAAUAAAGA [WHB=ISS-NG2-MS2FAR3 #bad] (puzzle (switch architecture): Inverted Same State NG 2) | 0.00758 µM | 0.0107 µM | – | –
7 | AGACCUGCUCAGAAGGCGUGUGCGAGGCUGGAAACAGCCUCGAAUUAAAAUCUUCGAGGAUCACCCGAGGAUAUGAGCAGGUCA [#SharedSequence - IExNG2: 20] (puzzle (switch architecture): Inverted Exclusion NG 2) | 0.0597 µM | 0.0113 µM | – | –
8 | CAAUUGGCACAGAAGGGUGACAUGAGGAUCACCCAUGUAGCGUGGCAUUCAGGAAGAGCCACGCCACAGGAUAUGUGCGGGCAC [Rigeri] (puzzle (switch architecture): Inverted Same State NG 2) | 0.0319 µM | 0.0247 µM | – | –
9 | CCUGCACCUCAAGGAUAUCCAGUCGUUUCGACUGGAGAAGGUGAGGAUCACCCACCUAGCCUGACGUUUGUCAGGCAUGCAGGU [#AddUracilToBrourdLoops 1 - Jieux - Exclusion NG1] (puzzle (switch architecture): Exclusion NG 1) | 0.0495 µM | 0.027 µM | – | –
10 | CGGAGACAUGAGGAUCACCCAUGUGAGAAGAGGCGAGGAUAUCGAAAGAAAGAAGAGAAACGAGAAGGCGCGAGCU [salish99-SS1-072] | – | – | 0.0276 µM | 0.0231 µM
11 | CUCAGGAAGAGAGAGGAUAUCCAAAGGAAAACAUGAGGAUCACCCAUGUAAAAGGUAGGAAAUUGGGAGAAGGCUCAAGAGAGAG [salish99-ss2-096] | – | – | 0.04 µM | 0.0223 µM
12 | CUGGACAUAGUACAGGAUAUAUGAAUAGUCACAUGAGGAUCACCCAUGUCCAUUUAUAUGGGCACAUAGAAGGGUGGUAGUUAAG [Mat - Same state - Malcolm Mod - D139] | – | – | 0.0412 µM | 0.00452 µM
13 | CUUAGACAUGAGGAUCACCCAUGUCGAACAAACAAAGGAUAUGGGAGCCGAAGACGGCUAUUAGAAGGUUGCAAAA [Anrioned] | – | – | 0.0264 µM | 0.028 µM
14 | CUUAGUUUGUAGAAGGGUGACAUGAGGAUCACCCAUGUGCGUCGCCUGAAAGACCAGGGUACGCCACAGGAUAUACAAAGUAAG [Ororzati] (puzzle (switch architecture): Inverted Same State NG 2) | 0.0882 µM | 0.058 µM | – | –
15 | GAAAAACAUGAGGAUCACCCAUGUAGAAAUAUGGGAGGAUAUACGAAGACGAAAGUCAAAGUAGAAGGCCUAAGAA [Mat - Same State 1 - Eli mod - D109] | – | – | 0.0878 µM | 0.0217 µM
16 | GAAAAACAUGAGGAUCACCCAUGUCAAUAUAUGGGAGGAUAUACAAAGACGAAAGUCAAAGUAGAAGGCCUAAAAG | – | – | 0.0664 µM | 0.0183 µM
17 | GAAAAACAUGAGGAUCACCCAUGUGAAAAUAUGGGAGGAUAUACGAAGACGAAAGUCAAAGUAGAAGGCCUAAAAG [Garnet 31] | – | – | 0.0879 µM | 0.0238 µM
18 | GAAGAACAUGAGGAUCACCCAUGUGUAGAAGCAUGAGGAUAUGUAAGUCAAAGAAAAACGAUAGAAGGCAUGGAGA [JR_SS001_Sub1714] | – | – | 0.119 µM | 0.141 µM

Row | Sequence | apparent KD of MS2 coat protein ([1]; input ligand: FMN 200 uM) | apparent KD of MS2 coat protein ([1]; input ligand: none) | apparent KD of MS2 coat protein [2] | apparent KD of MS2 coat protein [3]
19 | GAAGACAUAGUUCAGGAUAUGGGAAUAGUCACAUGAGGAUCACCCAUGUGCAUUUAUAUGCGCGCUCAGAAGGGAGGUAGAUAUA [SameState2 Malc#19] | – | – | 0.0335 µM | 0.021 µM
20 | GACUGACAUGAGGAUCACCCAUGUAUUCAAACAUGAGGAUAUAUGACACGUCAUCGACGGAUAGAAGGCAUAGAUG [JR_SS001_Sub1210] | – | – | 0.205 µM | 0.163 µM
21 | GAGAGACAUGAGGAUCACCCAUGUAGGAUUAUGGGAGGAUAUACAAAGACGAGAGUCAGAGUAGAAGGCCUAGGAC [salish99-ss1-140] | – | – | 0.0567 µM | 0.0234 µM
22 | GAUAAACAUGAGGAUCACCCAUGUAGAUAUAUGGGAGGAUAUACAAAGACGAUAGUCAAAGUAGAAGGCCUAAAAG [77%, Mat - Mod of Eli - With 3 more U's] | – | – | 0.0792 µM | 0.0286 µM
23 | GCAGGGCCACACUAGGAUAUGGGUGUCUAGACAUGAGGAUCACCCAUGUUAUGGCAAAACAAAGCUCAGAAGGAGUCGUGGCCCA [Tizasozaer] | – | – | 0.036 µM | 0.0118 µM
24 | GCCUAACAUGAGGAUCACCCAUGUAGUGGGUUGUUAGGAUAUGGGCCGCAUUACGCUGCACCAGAAGGAAUAGAAG [Rasoraer] | – | – | 0.475 µM | 0.319 µM
25 | GGAAAACAUGAGGAUCACCCAUGUAGAAAUAUGGGAGGAUAUACAAAGACGAAAGUCAAAGUAGAAGGCCUAAAAG [salish99-SS1-084] | – | – | 0.0602 µM | 0.0339 µM
26 | GGGAAGAAGAGAGAGGAUAUCCAAAGGAAAACAUGAGGAUCACCCAUGUAAAAGGAAGGAAAUUGGGAGAAGGCUCAAAAGAGGA [salish99-ss2-025] | – | – | 0.0516 µM | 0.0216 µM
27 | GGUACUCAAAGAGUACCAAUACGAACAUGAGGAUCACCCAUGUAGGAUAUGCUACUCAAAGAGUAGCAGAAGGACAUGUGCCUU [salish99_ExNG3_020 #endbits investigation] (puzzle (switch architecture): Exclusion NG 3) | 0.0923 µM | 0.0151 µM | – | –
28 | GUCCAACAUGAGGAUCACCCAUGUGCAUGACACCGAGGAUAUGGGACUAAAGGUGCUGGACCAGAAGGCGGAAGAA [Laceus] | – | – | 0.0458 µM | 0.0271 µM
29 | GUGAAGGAGAGAGAGGAUAUCCAAAGGAAAACAUGAGGAUCACCCAUGUAGAAGGUAGGAAAUUGGGAGAAGGCUCAAGAGAGAG [salish99-ss2-114] | – | – | 0.0395 µM | 0.027 µM
30 | GUGGUACAUGAGGAUCACCCAUGUGUGGGAGCAUGAGGAUAUGUCAGUCCAUGAAAUACGAUAGAAGGCAUGGUGA [JR_SS001_Sub1712] | – | – | 0.264 µM | 0.234 µM
31 | UAAAAACAUGAGGAUCACCCAUGUAGAAAUAUGGGAGGAUAUACAAAGACGAAAGUCAAAGUAGAAGGCCUAAAAU [Mat - Same State 1 - Eli mod - 32] | – | – | 0.0622 µM | 0.0165 µM
32 | UACAGACAUGAGGAUCACCCAUGUAGAAUUAUGGGAGGAUAUACAAAGACGAGAGUCAGAGUAGAAGGCCUAGGAG [salish99-ss1-165] | – | – | 0.0569 µM | 0.0253 µM
33 | UAUAGACAUGAGGAUCACCCAUGUAGAAUUAUGGGAGGAUAUACAAAGACGAGAGUCAGAGUAGAAGGCCUAGGAG [salish99-ss1-153] | – | – | 0.0634 µM | 0.0318 µM
34 | UCCUUACAUGAGGAUCACCCAUGUCGCAGGAAUCAAGGAUAUGGGACCGCAAGACGGAAACCAGAAGGUGAAAUAU [Gedizala] | – | – | 0.287 µM | 0.181 µM
35 | UUUAAUUAUACGAAGGAUAUCGGUAAUUAGACAUGAGGAUCACCCAUGUUAUAUGGUUCCAUAUUCGAGAAGGUCGCGGGUGAAC [JR_SS002_Sub508] | – | – | 0.0193 µM | 0.0456 µM
36 | UUUAAUUGCGGGCAGGAUAUGUAUUAAAAUACAUGAGGAUCACCCAUGUGCGGGUGUAACACCCGACAGAAGGGCCAAUCGCGAC [Bearisan] | – | – | 0.3 µM | 0.0647 µM
